Results taken from article PMC9482650, “Quantitative fragmentomics allow affinity mapping of interactomes” (Nature Communications, 2022).

Key:
Experiment in all cases: holdup assay
Parameters in all cases: key: below the threshold = too weak to quantify, mostly under pKd 3.1 to 4
Conditions in all cases: plain residues with an end cap or a label only (N-terminal biotin on a linker: ado-ado)
GOPC, Q9HD26 = biological target: GOPC, Q9HD26
MPP6, Q9NZW5 = biological target: T1, MPP6, Q9NZW5
T1 sequence (Q9NZW5 125-219, limits assumed, looked up): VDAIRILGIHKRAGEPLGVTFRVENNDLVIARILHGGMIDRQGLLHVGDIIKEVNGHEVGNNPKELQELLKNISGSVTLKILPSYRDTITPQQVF

DLG1_2, Q12959 = biological target: DLG1_2, Q12959
MAST1, Q9Y2H9 = biological target: MAST1, Q9Y2H9
MPDZ_5, O75970 = biological target: T2, MPDZ_5, O75970
T2 sequence (O75970 695-796, limits assumed, looked up): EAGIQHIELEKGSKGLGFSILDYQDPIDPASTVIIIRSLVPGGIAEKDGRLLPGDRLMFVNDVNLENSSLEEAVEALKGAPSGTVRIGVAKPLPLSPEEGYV

DLG1_3, Q12959 = biological target: DLG1_3, Q12959
PDZD2_2, O15018 = biological target: T3, PDZD2_2, O15018
T3 sequence (O15018 329-429, limits assumed, looked up): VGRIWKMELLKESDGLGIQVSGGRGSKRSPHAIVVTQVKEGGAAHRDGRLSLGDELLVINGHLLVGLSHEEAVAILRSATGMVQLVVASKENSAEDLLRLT

HTRA2, O43464 = biological target: HTRA2, O43464
GRIP2_5, Q9C0E4 = biological target: GRIP2_5, Q9C0E4
SNTA1, Q13424 = biological target: T4, SNTA1, Q13424
T4 sequence (Q13424 82-180, limits assumed, looked up): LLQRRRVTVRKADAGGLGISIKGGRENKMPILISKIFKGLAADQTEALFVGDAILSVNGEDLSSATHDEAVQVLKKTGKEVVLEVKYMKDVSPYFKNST

DLG1_1, Q12959 = biological target: DLG1_1, Q12959
CASK, O14936 = biological target: CASK, O14936
IL16_3, Q14005 = biological target: IL16_3, Q14005
DLG3_1, Q92796 = biological target: T5, DLG3_1, Q92796
T5 sequence (Q92796 125-227, limits assumed, looked up): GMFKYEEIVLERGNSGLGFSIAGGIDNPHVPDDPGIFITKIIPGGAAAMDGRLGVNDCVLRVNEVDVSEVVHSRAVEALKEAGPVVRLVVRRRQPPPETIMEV

GRID2IP_2, A4D2P6 = biological target: GRID2IP_2, A4D2P6
LIN7A, O14910 = biological target: T6, LIN7A, O14910
T6 sequence (O14910 103-200, limits assumed, looked up): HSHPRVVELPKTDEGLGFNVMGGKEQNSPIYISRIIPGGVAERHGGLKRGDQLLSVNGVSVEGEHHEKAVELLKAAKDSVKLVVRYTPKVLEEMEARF

MAGI2_2, Q86UL8 = biological target: MAGI2_2, Q86UL8
FRMPD2_3, Q68DX3 = biological target: FRMPD2_3, Q68DX3
PCLO, Q9Y6V0 = biological target: T7, PCLO, Q9Y6V0
T7 sequence (Q9Y6V0 4491-4600, limits assumed, looked up): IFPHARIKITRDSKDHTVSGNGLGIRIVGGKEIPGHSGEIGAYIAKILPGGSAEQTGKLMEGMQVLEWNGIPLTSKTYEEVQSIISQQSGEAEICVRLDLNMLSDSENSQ

SIPA1L2, Q9P2F8 = biological target: T8, SIPA1L2, Q9P2F8
T8 sequence (Q9P2F8 945-1036, limits assumed, looked up): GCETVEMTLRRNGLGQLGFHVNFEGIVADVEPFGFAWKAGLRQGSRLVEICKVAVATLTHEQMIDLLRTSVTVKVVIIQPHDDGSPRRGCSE

NHERF2_2, Q15599 = biological target: NHERF2_2, Q15599
NHERF3_1, Q5T2W1 = biological target: T9, NHERF3_1, Q5T2W1
T9 sequence (Q5T2W1 4-100, limits assumed, looked up): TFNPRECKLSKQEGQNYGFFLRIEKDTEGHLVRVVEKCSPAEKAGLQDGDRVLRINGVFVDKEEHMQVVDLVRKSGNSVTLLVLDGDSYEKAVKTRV

NHERF3_4, Q5T2W1 = biological target: T10, NHERF3_4, Q5T2W1
T10 sequence (Q5T2W1 373-468, limits assumed, looked up): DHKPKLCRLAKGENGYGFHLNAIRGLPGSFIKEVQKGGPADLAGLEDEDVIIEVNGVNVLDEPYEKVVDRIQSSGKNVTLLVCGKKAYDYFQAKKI

GRIP2_6, Q9C0E4 = biological target: GRIP2_6, Q9C0E4
DFNB31_3, Q9P202 = biological target: T11, DFNB31_3, Q9P202
T11 sequence (Q9P202 811-907, limits assumed, looked up): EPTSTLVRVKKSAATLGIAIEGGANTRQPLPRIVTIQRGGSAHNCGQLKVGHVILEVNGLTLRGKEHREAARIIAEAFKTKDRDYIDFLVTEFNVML

FRMPD3, Q5JV73 = biological target: FRMPD3, Q5JV73
GRASP, Q7Z6J2 = biological target: GRASP, Q7Z6J2
Chain of GRASP, Q7Z6J2 (Q7Z6J2 96-193): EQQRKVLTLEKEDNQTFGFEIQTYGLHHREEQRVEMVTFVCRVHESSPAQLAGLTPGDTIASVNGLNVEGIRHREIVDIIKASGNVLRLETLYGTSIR

Chain of NHERF2_2, Q15599 (Q15599 142-238): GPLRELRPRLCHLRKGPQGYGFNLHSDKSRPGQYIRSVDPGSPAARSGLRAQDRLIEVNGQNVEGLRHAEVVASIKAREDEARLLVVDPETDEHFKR
Chain of FRMPD3, Q5JV73 (Q5JV73 12-100): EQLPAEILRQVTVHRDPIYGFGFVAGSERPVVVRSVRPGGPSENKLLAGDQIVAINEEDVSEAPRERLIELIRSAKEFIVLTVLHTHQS
Chain of MAGI2_2, Q86UL8 (Q86UL8 410-522): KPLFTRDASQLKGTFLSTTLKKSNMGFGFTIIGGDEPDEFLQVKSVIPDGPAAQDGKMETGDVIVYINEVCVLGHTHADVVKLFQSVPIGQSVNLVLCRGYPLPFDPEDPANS
Chain of GRID2IP_2, A4D2P6 (A4D2P6 272-370): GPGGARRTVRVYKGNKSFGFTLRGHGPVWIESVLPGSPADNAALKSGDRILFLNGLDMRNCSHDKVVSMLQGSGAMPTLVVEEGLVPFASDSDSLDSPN
Chain of GRIP2_6, Q9C0E4 (Q9C0E4 648-740): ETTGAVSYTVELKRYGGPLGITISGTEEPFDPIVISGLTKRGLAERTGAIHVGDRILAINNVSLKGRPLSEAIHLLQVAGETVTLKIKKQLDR
Chain of IL16_3, Q14005 (Q14005 1107-1207): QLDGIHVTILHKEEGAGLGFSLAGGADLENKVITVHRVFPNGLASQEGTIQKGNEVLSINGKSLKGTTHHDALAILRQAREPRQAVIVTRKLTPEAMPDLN
Chain of FRMPD2_3, Q68DX3 (Q68DX3 1073-1166): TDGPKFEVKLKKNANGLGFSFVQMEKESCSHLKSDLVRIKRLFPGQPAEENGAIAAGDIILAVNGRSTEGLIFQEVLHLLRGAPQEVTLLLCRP
Chain of GRIP2_5, Q9C0E4 (Q9C0E4 544-642): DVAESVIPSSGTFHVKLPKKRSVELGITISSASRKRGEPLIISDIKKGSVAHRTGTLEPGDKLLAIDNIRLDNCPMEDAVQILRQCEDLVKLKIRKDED
Chain of CASK, O14936 (O14936 487-570): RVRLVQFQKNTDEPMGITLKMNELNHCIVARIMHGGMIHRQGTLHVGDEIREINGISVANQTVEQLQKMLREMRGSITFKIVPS
Chain of HTRA2, O43464 (O43464 355-458): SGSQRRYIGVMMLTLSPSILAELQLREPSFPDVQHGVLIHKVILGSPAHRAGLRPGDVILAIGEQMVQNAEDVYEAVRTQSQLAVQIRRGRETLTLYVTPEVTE
Chain of MAST1, Q9Y2H9 (Q9Y2H9 962-1065): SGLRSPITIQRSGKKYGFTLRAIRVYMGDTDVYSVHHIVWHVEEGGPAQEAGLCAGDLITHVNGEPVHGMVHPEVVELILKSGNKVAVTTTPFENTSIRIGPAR

| Binder | pKd (GOPC, Q9HD26) | pKd (MPP6, Q9NZW5) | pKd (DLG1_2, Q12959) | pKd (MAST1, Q9Y2H9) | pKd (MPDZ_5, O75970) | pKd (DLG1_3, Q12959) | pKd (PDZD2_2, O15018) | pKd (HTRA2, O43464) | pKd (GRIP2_5, Q9C0E4) | pKd (SNTA1, Q13424) | pKd (DLG1_1, Q12959) | pKd (CASK, O14936) | pKd (IL16_3, Q14005) | pKd (DLG3_1, Q92796) | pKd (GRID2IP_2, A4D2P6) | pKd (LIN7A, O14910) | pKd (MAGI2_2, Q86UL8) | pKd (FRMPD2_3, Q68DX3) | pKd (PCLO, Q9Y6V0) | pKd (SIPA1L2, Q9P2F8) | also measured |
| --- | --- | --- | --- | --- | --- | --- | --- | --- | --- | --- | --- | --- | --- | --- | --- | --- | --- | --- | --- | --- | --- |
| YAEKRMLTEV [KCNA6, P17658] | 3.74 | 3.54 | 4.23 | 4.65 | below the threshold | below the threshold | 4.34 | below the threshold | below the threshold | below the threshold | 3.91 | below the threshold | below the threshold | below the threshold | 3.72 | below the threshold | 4.33 | below the threshold | below the threshold | below the threshold | pKd (NHERF2_2, Q15599): below the threshold; pKd (NHERF3_1, Q5T2W1): below the threshold; pKd (NHERF3_4, Q5T2W1): below the threshold; pKd (GRIP2_6, Q9C0E4): below the threshold; pKd (DFNB31_3, Q9P202): 4.15; pKd (FRMPD3, Q5JV73): below the threshold; pKd (GRASP, Q7Z6J2): 4.32 |
| DYSNLRETDI [ADRA1D, P25100] | below the threshold | 3.63 | 4.74 | 4.34 | below the threshold | below the threshold | 4.18 | below the threshold | below the threshold | 5.71 | 4.1 | below the threshold | below the threshold | 3.6 | below the threshold | below the threshold | below the threshold | below the threshold | below the threshold | below the threshold | pKd (NHERF2_2, Q15599): below the threshold; pKd (NHERF3_1, Q5T2W1): below the threshold; pKd (NHERF3_4, Q5T2W1): below the threshold; pKd (GRIP2_6, Q9C0E4): below the threshold; pKd (DFNB31_3, Q9P202): 3.91; pKd (FRMPD3, Q5JV73): below the threshold; pKd (GRASP, Q7Z6J2): below the threshold |

Second part, led by results:

| pKd (GOPC, Q9HD26) | pKd (MPP6, Q9NZW5) | pKd (DLG1_2, Q12959) | pKd (MAST1, Q9Y2H9) | pKd (MPDZ_5, O75970) | pKd (DLG1_3, Q12959) | pKd (PDZD2_2, O15018) | pKd (HTRA2, O43464) | pKd (GRIP2_5, Q9C0E4) | pKd (SNTA1, Q13424) | pKd (DLG1_1, Q12959) | pKd (CASK, O14936) | pKd (IL16_3, Q14005) | pKd (DLG3_1, Q92796) | pKd (GRID2IP_2, A4D2P6) | pKd (LIN7A, O14910) | pKd (MAGI2_2, Q86UL8) | pKd (FRMPD2_3, Q68DX3) | pKd (PCLO, Q9Y6V0) | pKd (SIPA1L2, Q9P2F8) | Binder | also measured |
| --- | --- | --- | --- | --- | --- | --- | --- | --- | --- | --- | --- | --- | --- | --- | --- | --- | --- | --- | --- | --- | --- |
| 3.59 | below the threshold | 3.99 | 3.89 | below the threshold | below the threshold | 4.99 | below the threshold | below the threshold | 3.68 | 3.74 | below the threshold | below the threshold | below the threshold | 3.96 | below the threshold | 3.69 | below the threshold | below the threshold | below the threshold | GVHSNDHSVV [LPAR1, Q92633] | pKd (NHERF2_2, Q15599): below the threshold; pKd (NHERF3_1, Q5T2W1): below the threshold; pKd (NHERF3_4, Q5T2W1): below the threshold; pKd (GRIP2_6, Q9C0E4): below the threshold; pKd (DFNB31_3, Q9P202): below the threshold; pKd (FRMPD3, Q5JV73): below the threshold; pKd (GRASP, Q7Z6J2): 4.47 |
| below the threshold | 3.58 | below the threshold | 3.9 | below the threshold | below the threshold | 3.68 | below the threshold | below the threshold | below the threshold | below the threshold | below the threshold | below the threshold | below the threshold | below the threshold | below the threshold | below the threshold | below the threshold | below the threshold | 3.49 | SAGADSETHC [SLCO1B1, Q9Y6L6] | pKd (NHERF2_2, Q15599): 3.72; pKd (NHERF3_1, Q5T2W1): 3.68; pKd (NHERF3_4, Q5T2W1): below the threshold; pKd (GRIP2_6, Q9C0E4): below the threshold; pKd (DFNB31_3, Q9P202): 3.55; pKd (FRMPD3, Q5JV73): below the threshold; pKd (GRASP, Q7Z6J2): below the threshold |
| 4.91 | below the threshold | 4.27 | 4.89 | below the threshold | below the threshold | below the threshold | below the threshold | below the threshold | 3.77 | 3.64 | below the threshold | below the threshold | below the threshold | 4.25 | below the threshold | 4.71 | below the threshold | below the threshold | below the threshold | WAKEKQHTRL [SLC17A1, Q14916] | pKd (NHERF2_2, Q15599): 4.39; pKd (NHERF3_1, Q5T2W1): 4.73; pKd (NHERF3_4, Q5T2W1): 4.11; pKd (GRIP2_6, Q9C0E4): below the threshold; pKd (DFNB31_3, Q9P202): below the threshold; pKd (FRMPD3, Q5JV73): below the threshold; pKd (GRASP, Q7Z6J2): 4.71 |
